Measurements: US7867500B2, “Cofactor that modulates steroid receptor activities” (The United States of America as represented by the …, priority 2004, dated 2011)

Tests used:
Assay type in all cases: cell-based
PCAF = molecular target: T1, PCAF (Homo sapiens, UniProt Q92831); assay: Mammalian two-hybrid assay with PCAF; settings: data not shown
T1 construct: expressed in transfected cells; host or cells: CV-1 (the same two-hybrid assay)
Procedure: These assays were conducted as described (He et al., 2002). In particular, the recommended procedure for the Mammalian Matchmaker two-hybrid assay kit (Clontech) was modified slightly by changing from a chloramphenicol acetyltransferase reporter to a Luciferase Reporter pFRLuc (Stratagene), which is under the control of five repeats of the upstream activating sequence for the binding of GAL4.

androgen receptor (AR) = molecular target: T2, androgen receptor (AR) (Homo sapiens, UniProt P10275); assay: AR-mediated induction of GREtkLUC reporter in CV-1 cells; settings: R1881
T2 construct: the whole cell actions of TIF2 with full length AR and TRβ; expressed in transfected cells; host or cells: CV-1
T2 sequence (P10275 1-920): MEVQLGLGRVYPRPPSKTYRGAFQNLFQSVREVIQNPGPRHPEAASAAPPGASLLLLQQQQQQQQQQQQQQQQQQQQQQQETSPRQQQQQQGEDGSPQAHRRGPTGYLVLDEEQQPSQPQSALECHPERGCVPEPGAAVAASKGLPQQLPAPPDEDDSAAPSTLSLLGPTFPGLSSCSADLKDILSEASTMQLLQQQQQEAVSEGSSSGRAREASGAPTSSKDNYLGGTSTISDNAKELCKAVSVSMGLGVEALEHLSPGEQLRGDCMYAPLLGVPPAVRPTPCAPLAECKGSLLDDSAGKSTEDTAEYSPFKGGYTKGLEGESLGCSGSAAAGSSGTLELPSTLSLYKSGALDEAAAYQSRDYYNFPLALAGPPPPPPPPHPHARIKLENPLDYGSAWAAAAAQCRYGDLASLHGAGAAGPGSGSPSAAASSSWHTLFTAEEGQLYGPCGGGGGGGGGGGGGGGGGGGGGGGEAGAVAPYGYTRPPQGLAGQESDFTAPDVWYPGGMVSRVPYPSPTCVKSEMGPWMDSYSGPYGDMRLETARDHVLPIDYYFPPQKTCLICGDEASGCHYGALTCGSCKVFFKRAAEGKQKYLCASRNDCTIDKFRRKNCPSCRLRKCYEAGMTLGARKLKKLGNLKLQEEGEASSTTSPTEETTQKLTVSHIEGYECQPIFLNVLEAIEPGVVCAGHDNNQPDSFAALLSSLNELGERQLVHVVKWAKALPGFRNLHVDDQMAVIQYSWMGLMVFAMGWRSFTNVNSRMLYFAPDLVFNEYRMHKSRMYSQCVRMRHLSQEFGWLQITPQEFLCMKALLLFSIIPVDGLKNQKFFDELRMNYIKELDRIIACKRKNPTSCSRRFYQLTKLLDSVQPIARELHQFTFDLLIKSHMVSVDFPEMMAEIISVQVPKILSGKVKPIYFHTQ
Procedure: FIG. 6D1-2 illustrate the effects of STAMP and TIF2 on androgen receptor (AR, FIG. 6D1) and thyroid receptor β (TRβ, FIG. 6D2) expression. […] Luciferase activities, normalized to the internal Renilla control values, and the fold changes in EC50 and fold induction were determined and plotted as in FIG. 4B.

[1] = molecular target: T3, thyroid (TR) (β) receptor (Homo sapiens, UniProt P10828); assay: Mammalian two-hybrid assay with VP16 full length receptor: TRβ; settings: 0.1 μM triiodothyronine
T3 construct: plus VP16 fused to the indicated full length receptors; expressed in transfected cells; host or cells: CV-1
T3 sequence (P10828 1-461): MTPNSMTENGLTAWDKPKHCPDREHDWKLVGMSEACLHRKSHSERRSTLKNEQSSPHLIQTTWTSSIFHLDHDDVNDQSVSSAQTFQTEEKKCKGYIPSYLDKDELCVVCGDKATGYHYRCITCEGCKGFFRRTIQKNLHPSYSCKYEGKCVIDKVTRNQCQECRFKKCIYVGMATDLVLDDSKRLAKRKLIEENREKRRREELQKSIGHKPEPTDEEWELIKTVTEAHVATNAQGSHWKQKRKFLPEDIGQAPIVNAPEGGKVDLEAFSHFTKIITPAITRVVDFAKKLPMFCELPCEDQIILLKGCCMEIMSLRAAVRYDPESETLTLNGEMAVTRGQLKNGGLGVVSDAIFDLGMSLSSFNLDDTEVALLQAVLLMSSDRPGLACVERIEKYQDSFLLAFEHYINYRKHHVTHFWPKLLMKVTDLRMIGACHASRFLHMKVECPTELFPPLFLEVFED
Procedure: FIG. 6C1-3 illustrate the association of STAMP with assorted steroid/nuclear receptors, including glucocorticoid receptors (GRs), progesterone receptors (PRs), androgen receptors (ARs), estrogen receptors (ER α or β), PPARγ2 receptors, thyroid receptor beta (TR), and retinoid (α) receptors (RAR α or RXR α). Triplicate samples of CV-1 cells were transfected (as described for FIG. 6B) with GAL, or GAL fused to TIF2.4 or STAMP834C, plus VP16 fused to the indicated full length receptors and incubated with the appropriate steroid (1 μM Dex, 20 nM R5020, 1 nM R1881, 0.1 μM triiodothyronine, or 1 μM estradiol, roziglitazone, or 9-cis-retinoic acid). The average relative luciferase activities of 2-3 experiments±S.E.M. were then plotted. FIG. 6C1 illustrates the effects of STAMP association upon GR, PR and AR induced expression. FIG. 6C2 illustrates the effects of STAMP association upon ERα, ERβ and PPARγ2 induced expression. FIG. 6C3 illustrates the effects of STAMP association upon TR, RARα and RXRα induced expression.
These assays were conducted as described (He et al., 2002). […]

T1 sequence (Q92831 whole entry, species assumed): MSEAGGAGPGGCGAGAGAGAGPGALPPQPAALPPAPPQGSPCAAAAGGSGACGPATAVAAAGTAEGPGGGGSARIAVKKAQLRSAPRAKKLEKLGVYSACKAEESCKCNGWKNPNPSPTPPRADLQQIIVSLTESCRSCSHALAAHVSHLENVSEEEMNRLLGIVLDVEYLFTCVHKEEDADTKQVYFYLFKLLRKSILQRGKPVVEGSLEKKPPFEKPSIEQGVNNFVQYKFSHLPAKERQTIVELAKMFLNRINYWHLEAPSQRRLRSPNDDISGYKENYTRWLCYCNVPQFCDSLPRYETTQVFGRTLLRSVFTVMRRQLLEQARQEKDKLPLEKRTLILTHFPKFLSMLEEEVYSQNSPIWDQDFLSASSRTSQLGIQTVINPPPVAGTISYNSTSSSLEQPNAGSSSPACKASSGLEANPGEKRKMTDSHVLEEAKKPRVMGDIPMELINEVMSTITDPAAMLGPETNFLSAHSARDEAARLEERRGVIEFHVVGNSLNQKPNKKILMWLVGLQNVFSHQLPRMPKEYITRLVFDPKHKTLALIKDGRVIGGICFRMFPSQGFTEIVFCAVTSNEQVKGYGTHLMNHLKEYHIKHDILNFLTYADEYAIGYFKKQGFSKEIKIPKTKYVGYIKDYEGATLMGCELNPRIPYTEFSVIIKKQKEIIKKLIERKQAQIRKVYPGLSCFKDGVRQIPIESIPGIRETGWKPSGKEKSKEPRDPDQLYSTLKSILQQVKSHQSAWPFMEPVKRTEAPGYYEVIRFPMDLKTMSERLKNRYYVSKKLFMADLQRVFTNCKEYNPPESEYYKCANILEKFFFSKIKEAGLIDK

B1: 6-6CL1: STAMP fragment amino acids 623-834, coactivator interaction domain (CID) (protein)
chain: ENTPKENSMKVREWNNKGGHCCKLETQELEPKFNLMQILQDNGNLSKMQARIAFSAYLQHVQIRLMKDSGGQTFSASWAAKEDEQMELVVRFLKRASNNLQHSLRMVLPSRRLALLERRRILAHQLGDFIIVYNKETEQMAEKKSKKKVEEEEEDGVNMENFQEFIRQASEAELEEVLTFYTQKNKSASVFLGTHSKISKNNNNYSDSGAKG
In the case of B1, the “association with PCAF” value (PCAF) is reported as “negligible association”.

B2: STAMP: SRC-1 and TIF2 Associated Modulatory Protein, 1277 amino acid human polypeptide, expressed from transfected plasmid (protein)
chain: MARDLEETASSSEDEEVISQEDHPCIMWTGGCRRIPVLVFHADAILTKDNNIRVIGERYHLSYKIVRTDSRLVRSILTAHGFHEVHPSSTDYNLMWTGSHLKPFLLRTLSEAQKVNHFPRSYELTRKDRLYKNIIRMQHTHGFKVFHILPQTFLLPAEYAEFCNSYSKDRGPWIVKPVASSRGRGVYLINNPNQISLEENILVSRYINNPLLIDDFKFDVRLYVLVTSYDPLVIYLYEEGLARFATVRYDQGAKNIRNQFMHLTNYSVNKKSGDYVSCDDPEVEDYGNKWSMSAMLRYLKQEGRDTTALMAHVEDLIIKTIISAELAIATACKTFVPHRSSCFELYGFDVLIDSTLKPWLLEVNLSPSLACDAPLDLKIKASMISDMFTVVGFVCQDPAQRASTRPIYPTFESSRRNPFQKPQRCRPLSASDAEMKNLVGSAREKGPGKLGGSVLGLSMEEIKVLRRVKEENDRRGGFIRIFPTSETWEIYGSYLEHKTSMNYMLATRLFQDRMTADGAPELKIESLNSKAKLHAALYERKLLSLEVRKRRRRSSRLRAMRPKYPVITQPAEMNVKTETESEEEEEVALDNEDEEQEASQEESAGFLRENQAKYTPSLTALVENTPKENSMKVREWNNKGGHCCKLETQELEPKFNLMQILQDNGNLSKMQARIAFSAYLQHVQIRLMKDSGGQTFSASWAAKEDEQMELVVRFLKRASNNLQHSLRMVLPSRRLALLERRRILAHQLGDFIIVYNKETEQMAEKKSKKKVEEEEEDGVNMENFQEFIRQASEAELEEVLTFYTQKNKSASVFLGTHSKISKNNNNYSDSGAKGDHPETIMEEVKIKPPKQQQTTEIHSDKLSRFTTSAEKEAKLVYSNSSSGPTATLQKIPNTHLSSVTTSDLSPGPCHHSSLSQIPSAIPSMPHQPTILLNTVSASASPCLHPGAQNIPSPTGLPRCRSGSHTIGPFSSFQSAAHIYSQKLSRPSSAKAGSCYLNKHHSGIAKTQKEGEDASLYSKRYNQSMVTAELQRLAEKQAARQYSPSSHINLLTQQVTNLNLATGIINRSSASAPPTLRPIISPSGPTWSTQSDPQAPENHSSSPGSRSLQTGGFAWEGEVENNVYSQATGVVPQHKYHPTAGSYQLQFALQQLEQQKLQSRQLLDQSRARHQAIFGSQTLPNSNLWTMNNGAGCRISSATASGQKPTTLPQKVVPPPSSCASLVPKPPPNHEQVLRRATSQKASKGSSAEGQLNGLQSSLNPAASVPITSSTDPAHTKI
For B2, the “left-shift of the dose-response curve of ARs” value (androgen receptor (AR); STAMP added by itself) was “not when added by itself”, the “fold induction by AR” value (androgen receptor (AR); STAMP with TIF2) was “no additional effect” and the “fold induction by AR” value (androgen receptor (AR); STAMP without TIF2) was “increases the fold induction”. The “left-shift of the dose-response curve of ARs” value (androgen receptor (AR); in the presence of TIF2) was “augments the left-shift”.

B3: STAMP834C: STAMP fragment amino acids 834-1277, receptor interaction domain (RID) (protein)
chain: GDHPETIMEEVKIKPPKQQQTTEIHSDKLSRFTTSAEKEAKLVYSNSSSGPTATLQKIPNTHLSSVTTSDLSPGPCHHSSLSQIPSAIPSMPHQPTILLNTVSASASPCLHPGAQNIPSPTGLPRCRSGSHTIGPFSSFQSAAHIYSQKLSRPSSAKAGSCYLNKHHSGIAKTQKEGEDASLYSKRYNQSMVTAELQRLAEKQAARQYSPSSHINLLTQQVTNLNLATGIINRSSASAPPTLRPIISPSGPTWSTQSDPQAPENHSSSPGSRSLQTGGFAWEGEVENNVYSQATGVVPQHKYHPTAGSYQLQFALQQLEQQKLQSRQLLDQSRARHQAIFGSQTLPNSNLWTMNNGAGCRISSATASGQKPTTLPQKVVPPPSSCASLVPKPPPNHEQVLRRATSQKASKGSSAEGQLNGLQSSLNPAASVPITSSTDPAHTKI
B3 was tested, and the “interaction with thyroid receptor β” value [1] was “lack of interaction”.
